Values of other authors in paper PMC8300624.
Where two headings read alike, the source gives them in different places.

Columns and labels:
[1] = target: ASK1 TBD (Homo sapiens) (UniProt Q99683)
[2] = target: ASK1 TBD (Homo sapiens) (UniProt Q99683); remark: listed apart in the source

ASK1 TBD (Homo sapiens), sequence (Q99683 88-302): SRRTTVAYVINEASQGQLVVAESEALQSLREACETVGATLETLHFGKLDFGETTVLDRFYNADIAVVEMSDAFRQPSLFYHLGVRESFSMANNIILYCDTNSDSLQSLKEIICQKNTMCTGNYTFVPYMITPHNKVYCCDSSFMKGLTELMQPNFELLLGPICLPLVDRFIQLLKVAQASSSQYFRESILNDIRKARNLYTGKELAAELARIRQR
Thioredoxin 1, sequence (P10599 2-105): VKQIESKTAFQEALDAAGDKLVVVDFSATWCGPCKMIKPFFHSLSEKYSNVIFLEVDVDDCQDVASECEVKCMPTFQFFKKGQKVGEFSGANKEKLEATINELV

Kd [1]: 0.3 µM
Kd [2]: 4 µM
Substance: Thioredoxin 1 (from UniProt P10599)
